In PMC3752401:

Assays:
H3K9 core mononucleosome = assay: native gel or EMSA
[1] = biological target: H3Kc9me3 core mononucleosome; assay: native gel or EMSA
[2] = biological target: H3Kc9me3 core mononucleosome; assay: fluorescence polarisation

Sequence of Suv39/Clr4 (full length wild-type) (O60016 whole entry): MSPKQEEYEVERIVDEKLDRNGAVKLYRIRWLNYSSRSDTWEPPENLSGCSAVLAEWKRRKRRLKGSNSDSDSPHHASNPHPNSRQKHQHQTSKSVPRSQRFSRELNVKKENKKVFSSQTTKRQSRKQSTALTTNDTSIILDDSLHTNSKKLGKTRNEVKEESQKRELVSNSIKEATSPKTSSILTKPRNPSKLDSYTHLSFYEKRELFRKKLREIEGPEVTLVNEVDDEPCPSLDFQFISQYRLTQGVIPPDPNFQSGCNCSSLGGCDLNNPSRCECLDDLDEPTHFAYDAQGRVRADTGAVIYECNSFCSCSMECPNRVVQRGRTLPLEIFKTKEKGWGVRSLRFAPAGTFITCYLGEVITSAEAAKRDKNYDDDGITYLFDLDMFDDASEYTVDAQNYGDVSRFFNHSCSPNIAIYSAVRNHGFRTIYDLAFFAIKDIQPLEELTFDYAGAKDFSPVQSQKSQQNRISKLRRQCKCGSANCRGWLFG

- K1/2 (H3K9 core mononucleosome): 1.8 µM
- K1/2 [1]: 1.5 µM
- fold sensitivity of the FP increase to the H3Kc9me3 mark over the H3K9 control [2]: > 25 fold
Substance: Suv39/Clr4 (full length wild-type) (from UniProt O60016 1-490) (enzyme)
